Test [1] has as its system dermal microvascular endothelial cells (EC). Description: apoptosis by caspase-3 levels in dermal microvascular endothelial cells. The class given is cell-based. As to the method: (§1) The mechanisms of the cancer-suppressing effect observed for obtustatin were investigated as follows. Dermal microvascular endothelial cells (EC) and human melanoma cells (MV3) were cultured and exposed to TNF-α, vincristine and obtustatin. (TNF-α and vincristine are compounds which induce cell death by apoptosis in both normal and cancerous cells.) Control cells received only vehicle. The extent of apoptosis was measured by determining caspase-3 levels.

The test system of test [2] is human melanoma cells (MV3). Kind of test: apoptosis by caspase-3 levels in melanoma MV3 cells. The class given is cell-based. On the procedure:
as §1

Test [3] has as its target T1, α1β1 integrin (Homo sapiens, UniProt P05556+P56199).
T1 construct: expressed in transfected cells; host or cells: α1K562 cells
Kind of test: adhesion of α1K562 cells to immobilized collagen IV. The class given is cell-based. The conditions noted are these: for IC50: α1K562 cells, α1β1, collagen IV. As to the method:
Collagen IV (0.2 μg/well) in 0.02 M acetic acid was immobilized by incubation overnight at 4° C. on a 96-well plate. Plates were then blocked with 1% (w/v) BSA (bovine serum albumin) in Hank's Balanced Salt Solution (HBSS) containing 3 mM Mg^2+ at room temperature for 1-2 hours to prevent cells from non-specifically binding to the plates. α1K562 cells were labeled by incubation with 12.5 μM 5-chloromethylfluorescein diacetete (CMFDA) in HBSS for 15 minutes at 37° C. CMFDA labeled α1K562 cells were then pelleted, washed and resuspended in HBSS buffer containing 3 mM Mg^2+ and 1% BSA. […] The plates were washed three times with HBSS containing 3 mM Mg^2+ and 1% (w/v) BSA to remove unbound cells. Bound cells were lysed using 0.5% (v/v) Triton X-100 in H2O. Fluorescent CMFDA released by lysis of adherent cells in a given well was read using a Cytofluor 2350 fluorescence plate reader.
(§2) Adhesive ligands for the selected integrins consisted of collagen IV (0.2 μg/well), collagen I, fibronectin, or vascular cell adhesion molecule-1 (VCAM-1). Adhesive ligands in 0.02 M acetic acid were immobilized overnight at 4° C. on a 96-well plate. Plates were then blocked with 1% (w/v) BSA (bovine serum albumin) in Hank's Balanced Salt Solution (HBSS) containing 3 mM Mg^2+ at room temperature for 1-2 hours to prevent cells from non-specifically binding to the plates. α1K562, α2K562, K562, A5, and Jurkat cells expressing the α1β1, α2β1, α5β1, αIIbβ3, and α4β1 integrins respectively were labeled by incubation with 12.5 μM 5-chloromethylfluorescein diacetate (CMFDA) in HBSS for 15 minutes at 37° C. CMFDA labeled cells were then pelleted, washed and resuspended in HBSS buffer containing 3 mM Mg^2+ and 1% (w/v) BSA. […] Plates were then incubated at 37° C. for 30 minutes as indicated in Table 5 and washed three times with HBSS containing 3 mM Mg^2+ and 1% (w/v) BSA to remove unbound cells. Bound cells were lysed using 0.5% (v/v) Triton X-100 in H2O. Fluorescent CMFDA released by lysis of adherent cells in a given well was read using a Cytofluor 2350 fluorescence plate reader.
(§3) The effect of obtustatin, viperisrastatin, echistatin, and eristostatin on the binding of selected integrins to their adhesive ligands was evaluated using the cell adhesion assay described in Example 6. The integrin-expressing cells, integrins and corresponding adhesive ligands, and the results of the cell adhesion assay are shown in Table 6.

Test [4] addresses T1, α1β1 integrin. Kind of test: adhesion of α1K562 cells to collagen I. The conditions noted are these: α1β1, Coll I. The class given is cell-based. As to the method: as §2, §3
A further test has as its system Lewis lung carcinoma. Kind of test: Lewis lung carcinoma growth in syngeneic mouse model. The class given is in vivo, C57BL/6 mice. The conditions noted are these: 5 mg/kg intraperitoneally once daily for eight days. On the procedure: Lewis lung carcinoma cells (1×10^6) were injected under the skin of the C57BL/6 mice (Tacoma Inc., Germantown, N.Y.), and tumors were allowed to grow for one week. The average tumor size after one week of growth was approximately 0.08 cm^3. The one-week time-point was called “day 0.” Two treatment groups of four mice each were injected intraperitoneally once daily with either 5 mg/kg obtustatin or 5 mg/kg echistatin beginning on day 0 for a total of eight days. A control group of four mice received only PBS. Tumor volume was measured daily using the formula length×width^2×0.52.

In the next test the target is T2, α5β1 integrin (Homo sapiens, UniProt P05556+P08648).
T2 construct: endogenous in cells; host or cells: K562 cells
Description: adhesion of K562 cells to fibronectin. The class given is cell-based. As to the method: as §2, §3

Test [5] addresses T3, α1β1 integrin (Mus musculus, UniProt P09055+Q3V3R4).
T3 construct: endogenous in cells; host or cells: B16F10 cells
Description: adhesion of B16F10 cells to collagen IV. The class given is cell-based. The conditions noted are these: for IC50: α1β1, Coll IV.

The target in another test is T4, α6β1 integrin (Homo sapiens, UniProt P05556+P23229).
T4 construct: expressed in transfected cells; host or cells: α6K562 cells
Description: adhesion of α6K562 cells to laminin. The class given is cell-based. The conditions noted are these: α6β1, LM.

Another test deals with T5, αvβ3 integrin (Homo sapiens, UniProt P05106+P06756).
T5 construct: endogenous in cells; host or cells: JY cells
Kind of test: adhesion of JY cells to vitronectin. The conditions noted are these: αvβ3, VN. The class given is cell-based.

A further test deals with α2β1 integrin (Homo sapiens, UniProt P05556+P17301). Kind of test: adhesion of α2K562 cells to collagen I. The class given is cell-based. On the set-up: expressed in transfected cells; host or cells: α2K562 cells. As to the method: as §2, §3
The target in test [6] is T1, α1β1 integrin. Kind of test: adhesion of HS.939T cells to collagen IV. The class given is cell-based. The conditions noted are these: α1β1, Coll IV.
A further test concerns the target T6, α4β1 integrin (Homo sapiens, UniProt P05556+P13612).
T6 construct: endogenous in cells; host or cells: Jurkat cells
Description: adhesion of Jurkat cells to VCAM-1. The class given is cell-based. The conditions noted are these: α4β1, VCAM-1. As to the method:
as §2, §3

The target in the next test is T7, αIIbβ3 integrin (Homo sapiens, UniProt P05106+P08514).
T7 construct: expressed in transfected cells; host or cells: A5 cells
Kind of test: adhesion of A5 cells to fibrinogen. The class given is cell-based. On the procedure:
as §2, §3

Another test addresses T8, α9β1 integrin (Homo sapiens, UniProt P05556+Q13797).
T8 construct: expressed in transfected cells; host or cells: SW480α9 cells
Description: adhesion of SW480α9 cells to VCAM-1. The conditions noted are these: α9β1, VCAM-1. The class given is cell-based.

Another test has as its system angiogenesis. Description: Japanese quail chorioallantoic membrane (CAM) angiogenesis assay. The conditions noted are these: 20 μg and 50 μg, in words. The class given is in vivo. As to the method: The disintegrins obtustatin and eristostatin were evaluated for their effect on angiogenesis via a Japanese quail chorioallantoic membrane (CAM) assay, as is known in the art (see, for example, Parsons-Wingerter P et al., “A Novel Assay of Angiogenesis in the Quail Chorioallantoic Membrane: Stimulation by bFGF and Inhibition by Angiostatin According to Fractal Dimension and Grid Intersection.” Microvascular Research 55(3):201-214, 1998, the disclosure of which is herein incorporated by reference).

Where only a bound is given, the exact number is not on record here.

T1 sequence (P56199 29-1179): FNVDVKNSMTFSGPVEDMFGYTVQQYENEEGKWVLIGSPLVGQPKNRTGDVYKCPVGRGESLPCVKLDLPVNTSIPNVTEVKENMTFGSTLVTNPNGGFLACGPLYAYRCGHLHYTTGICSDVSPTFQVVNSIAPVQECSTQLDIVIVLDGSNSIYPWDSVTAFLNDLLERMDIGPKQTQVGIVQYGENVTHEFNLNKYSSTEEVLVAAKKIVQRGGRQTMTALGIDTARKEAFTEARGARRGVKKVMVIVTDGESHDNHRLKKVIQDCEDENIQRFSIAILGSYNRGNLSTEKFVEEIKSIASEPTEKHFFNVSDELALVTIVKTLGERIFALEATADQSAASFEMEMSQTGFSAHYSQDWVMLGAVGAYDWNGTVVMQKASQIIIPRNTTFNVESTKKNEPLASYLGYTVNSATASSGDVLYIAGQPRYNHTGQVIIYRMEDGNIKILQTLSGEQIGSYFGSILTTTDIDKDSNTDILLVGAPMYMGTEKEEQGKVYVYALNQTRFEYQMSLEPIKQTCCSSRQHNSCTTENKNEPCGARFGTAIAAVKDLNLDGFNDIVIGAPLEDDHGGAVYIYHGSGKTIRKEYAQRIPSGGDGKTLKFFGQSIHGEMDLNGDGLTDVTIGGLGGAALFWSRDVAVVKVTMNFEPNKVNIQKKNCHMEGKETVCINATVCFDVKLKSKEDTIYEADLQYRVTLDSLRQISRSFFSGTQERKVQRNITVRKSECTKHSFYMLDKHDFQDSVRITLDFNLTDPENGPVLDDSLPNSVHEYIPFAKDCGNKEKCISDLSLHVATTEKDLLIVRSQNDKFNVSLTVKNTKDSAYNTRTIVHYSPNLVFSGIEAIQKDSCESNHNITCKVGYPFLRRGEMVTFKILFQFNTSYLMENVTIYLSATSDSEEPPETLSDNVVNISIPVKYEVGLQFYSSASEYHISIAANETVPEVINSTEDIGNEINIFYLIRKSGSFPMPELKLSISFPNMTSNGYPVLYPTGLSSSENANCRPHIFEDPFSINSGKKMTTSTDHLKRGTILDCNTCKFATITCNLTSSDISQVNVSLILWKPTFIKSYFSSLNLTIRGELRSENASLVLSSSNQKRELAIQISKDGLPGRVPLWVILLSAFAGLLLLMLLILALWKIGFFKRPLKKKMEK
T1 sequence (P05556 21-798): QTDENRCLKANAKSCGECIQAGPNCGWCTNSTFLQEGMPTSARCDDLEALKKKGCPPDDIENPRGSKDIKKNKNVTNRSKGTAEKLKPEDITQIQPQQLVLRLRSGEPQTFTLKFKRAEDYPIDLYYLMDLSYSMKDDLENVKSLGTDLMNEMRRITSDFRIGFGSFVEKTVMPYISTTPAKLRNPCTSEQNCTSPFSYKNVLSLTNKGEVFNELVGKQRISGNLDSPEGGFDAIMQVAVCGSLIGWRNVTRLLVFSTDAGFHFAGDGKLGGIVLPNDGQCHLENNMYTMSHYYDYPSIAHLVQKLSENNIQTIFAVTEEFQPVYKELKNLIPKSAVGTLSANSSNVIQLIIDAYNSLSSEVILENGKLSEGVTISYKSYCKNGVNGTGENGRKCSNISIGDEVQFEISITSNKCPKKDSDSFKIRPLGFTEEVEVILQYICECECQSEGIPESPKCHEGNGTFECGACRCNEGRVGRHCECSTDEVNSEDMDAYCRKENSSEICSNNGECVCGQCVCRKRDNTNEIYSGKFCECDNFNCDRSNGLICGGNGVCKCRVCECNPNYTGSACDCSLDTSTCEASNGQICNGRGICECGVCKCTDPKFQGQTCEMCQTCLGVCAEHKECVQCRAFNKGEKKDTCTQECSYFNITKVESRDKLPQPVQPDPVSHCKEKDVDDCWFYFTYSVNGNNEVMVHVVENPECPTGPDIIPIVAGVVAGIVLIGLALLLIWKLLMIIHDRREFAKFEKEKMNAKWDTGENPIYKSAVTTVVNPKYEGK
T5 sequence (P06756 31-889 limits assumed): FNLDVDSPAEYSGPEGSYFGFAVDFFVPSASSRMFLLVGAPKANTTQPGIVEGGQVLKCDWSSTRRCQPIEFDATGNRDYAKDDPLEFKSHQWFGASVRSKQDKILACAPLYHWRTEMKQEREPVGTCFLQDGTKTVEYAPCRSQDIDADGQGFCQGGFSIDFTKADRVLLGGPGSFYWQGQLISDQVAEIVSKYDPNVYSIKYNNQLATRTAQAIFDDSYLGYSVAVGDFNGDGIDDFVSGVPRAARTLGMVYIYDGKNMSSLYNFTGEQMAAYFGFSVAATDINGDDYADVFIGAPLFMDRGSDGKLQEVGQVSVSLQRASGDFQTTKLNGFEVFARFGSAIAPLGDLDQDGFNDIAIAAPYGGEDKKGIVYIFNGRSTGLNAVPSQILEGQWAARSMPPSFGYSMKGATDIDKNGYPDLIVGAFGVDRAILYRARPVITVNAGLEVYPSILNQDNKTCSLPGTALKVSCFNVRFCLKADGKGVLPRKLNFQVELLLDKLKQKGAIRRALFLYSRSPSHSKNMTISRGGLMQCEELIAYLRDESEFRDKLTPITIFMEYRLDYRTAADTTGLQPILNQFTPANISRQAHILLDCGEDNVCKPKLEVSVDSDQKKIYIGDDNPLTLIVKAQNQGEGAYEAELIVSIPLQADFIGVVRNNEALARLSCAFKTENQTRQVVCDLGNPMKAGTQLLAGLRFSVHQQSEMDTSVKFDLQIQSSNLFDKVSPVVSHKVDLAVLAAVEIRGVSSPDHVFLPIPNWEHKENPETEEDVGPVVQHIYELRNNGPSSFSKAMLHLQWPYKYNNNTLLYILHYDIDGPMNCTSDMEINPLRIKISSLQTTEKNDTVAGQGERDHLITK
T5 sequence (P06756 891-1048 partner limits assumed): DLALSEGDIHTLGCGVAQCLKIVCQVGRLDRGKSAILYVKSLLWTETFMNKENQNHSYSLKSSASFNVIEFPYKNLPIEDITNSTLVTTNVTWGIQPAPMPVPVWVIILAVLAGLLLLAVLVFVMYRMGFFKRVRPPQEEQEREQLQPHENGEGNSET
T5 sequence (P05106 27-788): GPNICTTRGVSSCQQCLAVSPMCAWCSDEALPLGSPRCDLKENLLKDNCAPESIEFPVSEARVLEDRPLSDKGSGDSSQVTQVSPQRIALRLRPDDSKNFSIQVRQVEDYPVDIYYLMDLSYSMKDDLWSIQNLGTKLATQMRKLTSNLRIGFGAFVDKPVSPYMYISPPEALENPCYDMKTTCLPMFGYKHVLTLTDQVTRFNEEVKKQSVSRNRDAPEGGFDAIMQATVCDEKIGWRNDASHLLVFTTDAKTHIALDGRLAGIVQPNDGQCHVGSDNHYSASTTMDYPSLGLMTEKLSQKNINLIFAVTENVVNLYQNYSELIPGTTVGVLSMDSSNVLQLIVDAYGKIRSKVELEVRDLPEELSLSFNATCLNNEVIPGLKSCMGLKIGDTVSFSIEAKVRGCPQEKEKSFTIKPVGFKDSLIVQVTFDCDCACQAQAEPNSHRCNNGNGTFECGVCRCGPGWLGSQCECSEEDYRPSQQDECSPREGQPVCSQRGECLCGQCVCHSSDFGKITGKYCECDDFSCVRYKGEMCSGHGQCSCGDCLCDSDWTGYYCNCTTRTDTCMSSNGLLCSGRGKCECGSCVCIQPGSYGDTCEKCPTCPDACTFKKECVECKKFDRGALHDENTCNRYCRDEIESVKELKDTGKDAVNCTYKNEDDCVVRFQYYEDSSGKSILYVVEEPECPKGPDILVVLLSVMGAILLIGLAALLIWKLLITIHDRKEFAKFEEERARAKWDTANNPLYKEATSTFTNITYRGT
T8 sequence (Q13797 30-1035): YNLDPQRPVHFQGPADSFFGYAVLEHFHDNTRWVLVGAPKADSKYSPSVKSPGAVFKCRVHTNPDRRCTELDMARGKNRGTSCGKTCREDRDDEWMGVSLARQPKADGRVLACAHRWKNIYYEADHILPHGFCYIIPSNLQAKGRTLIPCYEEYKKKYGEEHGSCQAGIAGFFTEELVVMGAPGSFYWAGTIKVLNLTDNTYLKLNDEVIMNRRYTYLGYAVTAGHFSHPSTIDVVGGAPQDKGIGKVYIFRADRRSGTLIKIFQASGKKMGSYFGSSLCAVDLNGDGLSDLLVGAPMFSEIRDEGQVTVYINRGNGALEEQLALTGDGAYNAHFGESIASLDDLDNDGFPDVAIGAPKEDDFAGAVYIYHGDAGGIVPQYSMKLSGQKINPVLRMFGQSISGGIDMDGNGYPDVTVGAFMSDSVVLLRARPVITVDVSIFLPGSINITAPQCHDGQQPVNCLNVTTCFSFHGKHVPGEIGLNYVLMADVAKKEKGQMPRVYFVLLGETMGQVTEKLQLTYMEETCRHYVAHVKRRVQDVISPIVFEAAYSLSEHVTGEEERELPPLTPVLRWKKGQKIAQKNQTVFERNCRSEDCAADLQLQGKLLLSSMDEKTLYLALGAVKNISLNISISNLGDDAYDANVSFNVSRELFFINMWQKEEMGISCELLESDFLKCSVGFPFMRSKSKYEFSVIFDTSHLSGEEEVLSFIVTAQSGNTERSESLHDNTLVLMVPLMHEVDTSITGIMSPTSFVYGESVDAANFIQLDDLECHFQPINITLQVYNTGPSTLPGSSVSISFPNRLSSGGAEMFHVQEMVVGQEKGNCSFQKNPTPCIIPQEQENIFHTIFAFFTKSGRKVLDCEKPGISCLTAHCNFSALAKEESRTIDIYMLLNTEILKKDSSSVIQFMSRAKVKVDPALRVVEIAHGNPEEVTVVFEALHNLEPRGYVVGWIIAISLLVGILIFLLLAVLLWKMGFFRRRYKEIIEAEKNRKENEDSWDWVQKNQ
T8 sequence (P05556 21-798): as the sequence (P05556 21-798) above

For the compound `CC[C@]1(O)C[C@H]2CN(CCc3c([nH]c4ccccc34)[C@@](C(=O)OC)(c3cc4c(cc3OC)N(C=O)[C@H]3[C@@](O)(C(=O)OC)[C@H](OC(C)=O)[C@]5(CC)C=CCN6CC[C@]43[C@@H]65)C2)C1` [vincristine], the “apoptosis (caspase-3)” value in test [1] and in test [2] was “induced apoptosis” throughout.

As for CKLKPAGTTC (obtustatin fragment), the “inhibition of α1β1 integrin-mediated adhesion of α1K562 cells to collagen IV” value in the test with α1β1 integrin [3] (in words) is reported as “did not appreciably inhibit”.

The IC50 is the concentration needed to halve the response being measured. Read a low IC50 as greater potency. As to “Echistatin: short RGD-containing disintegrin (QCESGPCCRNCKFLKEGTICKRARGDDMDDYCNGKTCDCPRNPHKGPAT) [reference compound]”, the IC50 in the test with α1β1 integrin [4] is > 10 µM; with α5β1 integrin it was 0.05 µM; with α1β1 integrin [5], > 10 µM; with α1β1 integrin [3] it was > 10 µM; in the test with α6β1 integrin it was > 10 µM; in the test with αvβ3 integrin, 0.0001 µM. Besides, the IC50 in the test with α2β1 integrin is > 10 µM; in the test with α1β1 integrin [6], > 10 µM; in the test with α4β1 integrin it was > 10 µM; with αIIbβ3 integrin it was 0.05 µM; with α9β1 integrin it was > 10 µM. Further, the “inhibition of tumor development (tumor volume)” value in the test with Lewis lung carcinoma was “no effect”.

Consider “Eristostatin: short disintegrin compared with obtustatin (QEEPCATGPCCRRCKFKRAGKVCRVARGDWNDDYCTGKSCDCPKNPWNG) [reference compound]”, for which the IC50 in the test with α1β1 integrin [4] was > 10 µM; with α5β1 integrin, > 10 µM; with α1β1 integrin [5], > 10 µM; in the test with α1β1 integrin [3] it was > 10 µM; with α6β1 integrin, > 10 µM; with αvβ3 integrin it was 2 µM. Moreover, the IC50 in the test with α2β1 integrin, with α1β1 integrin [6], in the test with α4β1 integrin and with α9β1 integrin was > 10 µM in each case. In the test with angiogenesis, the “effect on angiogenesis (fractal dimension)” value is given as “no affect”.

For the compound TNF-α, the “apoptosis (caspase-3)” value in [1] and in test [2] was “induced apoptosis” throughout.

Turning to “Viperisrastatin (CTTGPCCRQCKLKPAGTTCWKTSRTSHYCTGKSCDCPVYQG)”, the 50% inhibitory concentration (IC50) is 2e-05 µM in the test with α1β1 integrin [4]; > 10 µM with α5β1 integrin; 0.00025 µM with α1β1 integrin [5]; 8e-05 µM with α1β1 integrin [3]; > 10 µM in the test with α6β1 integrin; > 10 µM with αvβ3 integrin. Further, the 50% inhibitory concentration (IC50) in the test with α2β1 integrin was > 10 µM; with α1β1 integrin [6] it was 2e-06 µM; in the test with α4β1 integrin, > 10 µM; with αIIbβ3 integrin, > 10 µM; with α9β1 integrin it was > 10 µM. Further, the “activity relative to obtustatin, mouse α1β1 integrin” value in the test with α1β1 integrin [5] is “similar”.

The values above are taken from US20030186334A1, “KTS-disintegrins” (Temple University - Of the Commonwealth System of Higher …, priority 2001, published 2003).
